In US6521602 (GPC BIOTECH, dated 2003):
Each block holds one molecule with its values, some of them ahead of it.

Molecular target: CDK4/cyclin D1 complex (UniProt P11802 1-303; P24385 1-295)
Test: cell-based or functional assay

CDK4/cyclin D1 complex, sequence (P11802 whole entry, chain 1 of 2): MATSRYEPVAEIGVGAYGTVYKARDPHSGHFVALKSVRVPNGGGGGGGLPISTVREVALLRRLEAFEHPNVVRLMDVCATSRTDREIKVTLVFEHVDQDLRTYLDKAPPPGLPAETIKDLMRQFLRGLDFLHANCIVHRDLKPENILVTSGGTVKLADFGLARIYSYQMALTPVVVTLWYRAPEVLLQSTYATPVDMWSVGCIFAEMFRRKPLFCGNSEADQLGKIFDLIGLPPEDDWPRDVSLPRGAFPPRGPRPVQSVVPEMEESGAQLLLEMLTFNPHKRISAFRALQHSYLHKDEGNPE
CDK4/cyclin D1 complex, sequence (P24385 whole entry, chain 2 of 2): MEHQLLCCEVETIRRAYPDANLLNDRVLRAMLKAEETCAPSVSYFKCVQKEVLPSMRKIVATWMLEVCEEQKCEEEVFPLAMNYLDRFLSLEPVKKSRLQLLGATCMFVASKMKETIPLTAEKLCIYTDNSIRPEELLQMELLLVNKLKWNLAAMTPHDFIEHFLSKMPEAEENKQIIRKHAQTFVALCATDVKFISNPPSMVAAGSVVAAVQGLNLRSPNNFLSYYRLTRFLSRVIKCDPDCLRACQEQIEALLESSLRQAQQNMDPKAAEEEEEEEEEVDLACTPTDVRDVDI

- IC50, in vitro kinase activity: 63 nM
Molecule: human p27 (from UniProt P46527 1-198)

- IC50, in vitro kinase activity: 250 nM
B1: human p16 (other)
chain: MEPAAGSSMEPSADWLATAAARGRVEEVRALLEAGALPNAPNSYGRRPIQVMMMGSARVAELLLLHGAEPNCADPATLTRPVHDAAREGFLDTLVVLHRAGARLDVRDAWGRLPVDLAEELGHRDVARYLRAAAGGTRGSNHARIDAAEGPSDIPD
